Data published in paper PMC5433087.

Target: HER3 (Human, His-tagged; Sino Biological) (human) (UniProt P21860)
Test: SPR

UniProt P21860, sequence (P21860 20-643): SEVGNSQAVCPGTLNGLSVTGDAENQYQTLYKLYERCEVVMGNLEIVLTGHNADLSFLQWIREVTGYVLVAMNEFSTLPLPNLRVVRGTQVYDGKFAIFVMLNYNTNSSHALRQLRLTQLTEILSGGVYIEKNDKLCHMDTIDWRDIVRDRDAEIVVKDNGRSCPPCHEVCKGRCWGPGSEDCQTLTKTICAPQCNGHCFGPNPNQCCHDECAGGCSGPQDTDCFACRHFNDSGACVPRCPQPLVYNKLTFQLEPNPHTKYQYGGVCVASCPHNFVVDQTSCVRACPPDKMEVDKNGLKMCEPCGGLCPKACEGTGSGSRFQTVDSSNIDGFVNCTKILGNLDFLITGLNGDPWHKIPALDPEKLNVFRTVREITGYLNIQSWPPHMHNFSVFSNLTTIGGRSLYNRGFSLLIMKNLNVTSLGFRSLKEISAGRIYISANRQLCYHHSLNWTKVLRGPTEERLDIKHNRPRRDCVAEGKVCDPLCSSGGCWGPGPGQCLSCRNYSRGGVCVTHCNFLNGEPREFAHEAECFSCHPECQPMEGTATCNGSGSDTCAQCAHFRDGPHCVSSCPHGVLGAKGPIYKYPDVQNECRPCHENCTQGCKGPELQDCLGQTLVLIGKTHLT

Kd [nM]	Substance
0.327	bivalent HER3 affibody (two Z_(05413) domains joined by a spacer of three repeat units) (designed binder)
2.34	trivalent HER3 affibody (three Z_(05413) domains joined by spacers of three repeat units) (designed binder)
0.316	monovalent HER3 affibody (Z_(05413) affibody) (designed binder)
